Among the data in article PMC9959916, “A Highly Conserved Region in BRCA2 Suppresses the RAD51-Interaction Activity of BRC Repeats” (Veterinary Sciences, 2023) are response and ratio to parent values, retold here.

Residue numbers refer to the chain shown, from its start.

B1: Gal4 DNA-binding domain-fused cBRC1-HCR-BRC2 (canine BRCA2 993–1248 aa) [canine (Canis lupus familiaris)] / VP16-fused canine RAD51 [canine] (parent complex)
chain 1: PISNHSFENGFKTASNKEIKLSENNIRKSKMLFKDIEEHYPTNLACLEIVNTSSLESQKKPSKSHALDPQSINIISGFVQNSTYVSDSESGHTAPPTLSLKQDFDSNRNLTPSQKAEITELSTILEESGSQFEFTQFRKPSHIIQKNPFEMPENQLTILNSTSKEWKDDDLHLTTNAPSISQVDSKKSEGIIGGKQKFACLSRTSCNRSASGYSTDKNEVEFRGFYSARGTKLNVGSEALQKAKKLFSDLENINEE
chain 2: MAMQMQLEANADTSVEEESFGPQPISRLEQCGINANDVKKLEEAGFHTVEAVAYAPKKELISIKGISEAKADKILTEAAKLVPMGFTTATEFHQRRSEIIQITTGSKELDKLLQGGIETGSITEMFGEFRTGKTQICHTLAVTCQLPIDRGGGEGKAMYIDTEGTFRPERLLAVAERYGLSGSDVLDNVAYARGFNTDHQTQLLYQASAMMVESRYALLIVDSATALYRTDYSGRGELSARQMHLARFLRMLLRLADEFGVAVVITNQVVAQVDGAAMFAADPKKPIGGNIIAHASTTRLYLRKGRGETRICKIYDSPCLPEAEAMFAINADGVGDAKD
B2: FLAG-HA-NLS-fused cBRC1-HCR-BRC2 (canine BRCA2 993–1248 aa) [canine (Canis lupus familiaris)] / endogenous RAD51 (HeLa cells) [human (endogenous in HeLa)] (parent complex)
chain 1: B1 chain 1
chain 2: B1 chain 2 with S62N, T76A, G194A

In one test the parent is B1. In words: mammalian two-hybrid assay; n = 4; parent: 3.1; read off a plot.
Consider chain 1 T123P, for which the response is ~2 Firefly/Renilla.
With chain 1 I118M, the response was ~3.3 Firefly/Renilla.
On the same count and under the same terms, the value for chain 1 S122P was ~2.6 Firefly/Renilla.

Variants of B2 are the subject of another test. Briefly: co-immunoprecipitation (anti-FLAG IP, Western blot quantification); lysates from HeLa cells stably expressing the FLAG-HA-NLS-fused peptide; parent: 1. (Immunoblotting shows a protein as a band on a membrane.)
With chain 1 I118M, the ratio to parent was determined as 0.92.
Same read-out and setting: the value for chain 1 T123P was 0.57.
Still for that read-out and setting: then chain 1 S122P, with 0.52.
